Measurements from publication PMC4782999, “The Inhibitory Effect of Non-Substrate and Substrate DNA on the Ligation and Self-Adenylylation Reactions Catalyzed by T4 DNA Ligase”.

Columns and labels:
Conditions in all cases: protein: commercial; blunt, no nick
[1] = target: T1, T4 DNA ligase (UniProt P00970 1-487); assay: competition (nick-ligation inhibition); Ki x N sites; per binding site, N~100, assumed 24 bp footprint; derived from the Ki; EMSA: 50 mM Tris pH 7.5, 5 mM DTT, 5 mM Mg2+, 1 mM sodium pyrophosphate, 5% glycerol, room temperature (22 C), 20 min; ligation competition: 50 mM Tris-HCl pH 7.5, 1 mM ATP, 10 mM MgCl2, 10 mM DTT, 16 C
T1 sequence: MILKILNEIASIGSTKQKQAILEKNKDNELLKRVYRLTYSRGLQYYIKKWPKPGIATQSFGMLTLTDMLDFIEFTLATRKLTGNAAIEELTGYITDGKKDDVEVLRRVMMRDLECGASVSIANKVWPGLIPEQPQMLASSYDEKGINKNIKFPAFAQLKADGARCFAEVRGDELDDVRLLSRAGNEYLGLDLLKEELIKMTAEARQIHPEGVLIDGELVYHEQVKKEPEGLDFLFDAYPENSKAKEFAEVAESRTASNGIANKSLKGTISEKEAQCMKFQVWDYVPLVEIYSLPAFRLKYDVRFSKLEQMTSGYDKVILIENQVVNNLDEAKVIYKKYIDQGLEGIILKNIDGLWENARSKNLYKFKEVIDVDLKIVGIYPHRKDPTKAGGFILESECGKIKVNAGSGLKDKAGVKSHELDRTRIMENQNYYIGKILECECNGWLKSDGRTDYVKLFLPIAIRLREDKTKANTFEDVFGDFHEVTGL

[2] = target: T1, T4 DNA ligase; assay: competition (nick-ligation inhibition, competitive fit); 20 nM FAM-labeled nicked substrate, 25 pM ligase, 1 mM ATP, 10 mM Mg2+, 16 C; EMSA: 50 mM Tris pH 7.5, 5 mM DTT, 5 mM Mg2+, 1 mM sodium pyrophosphate, 5% glycerol, room temperature (22 C), 20 min; ligation competition: 50 mM Tris-HCl pH 7.5, 1 mM ATP, 10 mM MgCl2, 10 mM DTT, 16 C
[3] = target: T1, T4 DNA ligase; assay: competition (nick-ligation inhibition); Ki x N sites; per binding site, N=34, assumed 24 bp footprint; derived from the Ki; EMSA: 50 mM Tris pH 7.5, 5 mM DTT, 5 mM Mg2+, 1 mM sodium pyrophosphate, 5% glycerol, room temperature (22 C), 20 min; ligation competition: 50 mM Tris-HCl pH 7.5, 1 mM ATP, 10 mM MgCl2, 10 mM DTT, 16 C
[4] = target: T1, T4 DNA ligase; assay: competition (nick-ligation inhibition, competitive fit); 1 mM ATP, 10 mM Mg2+; EMSA: 50 mM Tris pH 7.5, 5 mM DTT, 5 mM Mg2+, 1 mM sodium pyrophosphate, 5% glycerol, room temperature (22 C), 20 min; ligation competition: 50 mM Tris-HCl pH 7.5, 1 mM ATP, 10 mM MgCl2, 10 mM DTT, 16 C

| Binder | Kd [1] | Ki [2] | Kd [3] | Ki [4] |
| --- | --- | --- | --- | --- |
| I-75-dsDNA (dsDNA) DNA 1: AGAGAAGATGACTACTGAGTTGTGCGATCCCTGCACTTCAGCTAAGGAAGCTACCAATATTTAGTTTCCGAGTCT DNA 2: AGACTCGGAAACTAAATATTGGTAGCTTCCTTAGCTGAAGTGCAGGGATCGCACAACTCAGTAGTCATCTTCTCT | 10 ± 2 µM | 0.1 ± 0.02 µM |  |  |
| I-40-dsDNA (dsDNA) DNA 1: CACATATGAGAAGGTATTTGCCCGATAATCAATACTCCAG DNA 2: CTGGAGTATTGATTATCGGGCAAATACCTTCTCATATGTG |  |  | 7 ± 1 µM | 0.2 ± 0.03 µM |
